Test results as given in patent US6045793, “Recombinant ribonuclease proteins” (dated 2000).

T1: Native ONCONASE (Rana pipiens, pyroglutamyl amino acid residue (<Glu-1) at the amino terminus)
T1 chain: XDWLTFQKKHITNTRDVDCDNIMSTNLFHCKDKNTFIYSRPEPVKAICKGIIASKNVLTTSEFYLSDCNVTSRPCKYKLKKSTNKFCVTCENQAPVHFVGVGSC

T2: rEDN(1-21) rOnc (human; Rana pipiens)
T2 chain: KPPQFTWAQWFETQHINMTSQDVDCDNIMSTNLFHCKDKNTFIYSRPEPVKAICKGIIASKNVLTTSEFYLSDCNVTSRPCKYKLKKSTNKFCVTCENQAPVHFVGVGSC

T3: rEDN(1-21) rOncG26 (human EDN part, Rana pipiens Onc part)
T3 chain: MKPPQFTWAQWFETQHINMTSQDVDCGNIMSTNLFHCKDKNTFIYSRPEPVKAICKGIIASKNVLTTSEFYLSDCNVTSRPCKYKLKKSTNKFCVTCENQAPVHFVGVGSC

T4: recombinant human eosinophil-derived neurotoxin (human)
T4 chain: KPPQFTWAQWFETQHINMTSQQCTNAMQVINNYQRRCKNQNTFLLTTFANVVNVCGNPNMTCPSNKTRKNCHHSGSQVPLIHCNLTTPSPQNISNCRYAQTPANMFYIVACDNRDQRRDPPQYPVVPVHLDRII

T5: [Met-(-1)]rOnc (Rana pipiens)
T5 chain: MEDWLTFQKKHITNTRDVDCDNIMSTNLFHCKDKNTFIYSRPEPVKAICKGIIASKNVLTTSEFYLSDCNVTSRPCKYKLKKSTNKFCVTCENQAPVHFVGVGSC

B1: E6FB[Met-(-1)Ser]rOnc (scFv)
chain: DIKMTQSPSSMYASLGERVTFTCKASQDINNYLCWFQQKPGKSPKTLIYRANRLVDGVPSRFSGSGSGQDYSLTISSLEYEDMGIYYCLQYDEFPYTFGGGTKLEIKGGGGSGGGGSGGGGSEVQLQQSGTVLARPGASVKMSCKASGYTFSSYWMHWIKQRPGQGLDWIVAIDPRNSDTIYNPQFKHKAKLTAVTSTSTAYMELNSLTNEDSAVYYCTPLYYFDSWGQGTTLTVSSAKKLNDAQAPKSDMSDWLTFQKKHITNTRDVDCDNIMSTNLFHCKDKNTFIYSRPEPVKAICKGIIASKNVLTTSEFYLSDCNVTSRPCKYKLKKSTNKFCVTCENQAPVHFVGVGSC
B2: Placental ribonuclease inhibitor (other)
chain: SLDIQSLDIQCEELSDARWAELLPLLQQCQVVRLDDCGLTEARCKDISSALRVNPALAELNLRSNELGDVGVHCVLQGLQTPSCKIQKLSLQNCCLTGAGCGVLSSTLRTLPTLQELHLSDNLLGDAGLQLLCEGLLDPQCRLEKLQLEYCSLSAASCEPLASVLRAKPDFKELTVSNNDINEAGVRVLCQGLKDSPCQLEALKLESCGVTSDNCRDLCGIVASKASLRELALGSNKLGDVGMAELCPGLLHPSSRLRTLWIWECGITAKGCGDLCRVLRAKESLKELSLAGNELGDEGARLLCETLLEPGCQLESLWVKSCSFTAACCSHFSSVLAQNRFLLELQISNNRLEDAGVRELCQGLGQPGSVLRVLWLADCDVSDSSCSSLAATLLANHSLRELDLSNNCLGDAGILQLVESVRQPGCLLEQLVLYDIYWSEEMEDRLQALEKDKPSLRVIS
B3: [Met-(-1)Glu]rOncFBE6 (scFv)
chain: MEDWLTFQKKHITNTRDVDCDNIMSTNLFHCKDKNTFIYSRPEPVKAICKGIIASKNVLTTSEFYLSDCNVTSRPCKYKLKKSTNKFCVTCENQAPVHFVGVGSCAKKLNDAQAPKSDDIKMTQSPSSMYASLGERVTFTCKASQDINNYLCWFQQKPGKSPKTLIYRANRLVDGVPSRFSGSGSGQDYSLTISSLEYEDMGIYYCLQYDEFPYTFGGGTKLEIKGGGGSGGGGSGGGGSEVQLQQSGTVLARPGASVKMSCKASGYTFSSYWMHWIKQRPGQGLDWIVAIDPRNSDTIYNPQFKHKAKLTAVTSTSTAYMELNSLTNEDSAVYYCTPLYYFDSWGQGTTLTVSSHHH

Experiments:
Assay in all cases: cell-based or functional assay
[1] = target: transferrin receptor on SF539 human glioma cells (human, UniProt P02786)
Native ONCONASE = target: T1, Native ONCONASE
rEDN(1-21) rOnc = target: T2, rEDN(1-21) rOnc
rEDN(1-21) rOncG26 = target: T3, rEDN(1-21) rOncG26
[2] = target: T4, recombinant human eosinophil-derived …
[Met-(-1)]rOnc = target: T5, [Met-(-1)]rOnc

Binder	IC50 (nM), inhibition of protein synthesis in SF539 human glioma cells [1]	Fold Difference of IC50 (ng/ml) in rabbit reticulocyte lysate, (+)PRI against (-)PRI (Native ONCONASE)	IC50 (ng/ml) of the RNase for inhibition of protein synthesis in rabbit reticulocyte lysate, (+)PRI (Native ONCONASE)	Fold Difference of IC50 (ng/ml) in rabbit reticulocyte lysate, (+)PRI against (-)PRI (rEDN(1-21) rOnc)	IC50 (ng/ml) of the RNase for inhibition of protein synthesis in rabbit reticulocyte lysate, (+)PRI (rEDN(1-21) rOnc)	Fold Difference of IC50 (ng/ml) in rabbit reticulocyte lysate, (+)PRI against (-)PRI (rEDN(1-21) rOncG26)	IC50 (ng/ml) of the RNase for inhibition of protein synthesis in rabbit reticulocyte lysate, (+)PRI (rEDN(1-21) rOncG26)	Fold Difference of IC50 (ng/ml) in rabbit reticulocyte lysate, (+)PRI against (-)PRI [2]	Fold Difference of IC50 (ng/ml) in rabbit reticulocyte lysate, (+)PRI against (-)PRI ([Met-(-1)]rOnc)	IC50 (ng/ml) of the RNase for inhibition of protein synthesis in rabbit reticulocyte lysate, (+)PRI ([Met-(-1)]rOnc)
B1	0.22 nM									
B2		1.2 fold	0.24 ng/mL	2 fold	3200 ng/mL	21 fold	600 ng/mL	> 30.7 fold	1.4 fold	140 ng/mL
B3	0.5 nM									
